Patent publication US20230295308A1, “ANTAGONISTIC BIPARATOPIC ANTIBODIES THAT SPECIFICALLY BIND FIBROBLAST GROWTH FACTOR RECEPTOR 2 AND METHODS OF USING SAME” (The Broad Institute, Inc., priority 2020, published 2023)

How the values were obtained:
[1] = system: BaF3 cells overexpressing FGFR2-PHGDH; assay: combination of BGJ398 and anti-FGFR2 bivalent antibody, isobolograms and Loewe scores (FIGS. 14, 15); format: cell-based; conditions: presence of FGF10, treated for 5 days
Excerpt: FIGS. 14B-14D provide isobolograms showing synergy between FGFR inhibitor and the anti-[…] bivalent antibody on the different days and supporting the results shown in FIG. 14A. FIG. 14B corresponds to 3 days after treatment with the BGJ398 inhibitor; FIG. 14C corresponds to 4 days after treatment with the BGJ398 inhibitor; and FIG. 14D corresponds to 5 days after treatment with the BGJ398 inhibitor. FIG. 14E provide Loewe scores showing synergy between the FGFR inhibitor and the anti-FGF2 bivalent antibody on the different days and supporting the results shown in FIG. 14A.
FIG. 15A presents charts showing synergy between the FGFR2 small molecule inhibitor BGJ398 and an anti-FGFR2 bivalent antibody (Antibody D) in the presence of FGF ligand (+FGF) in a cell-based assay using BaF3 cells overexpressing an FGFR2 fusion molecule (FGFR2-PHGDH) after 3, 4 and 5 days of treatment with the inhibitor and the antibody. […] FIGS. 15B-15D provide isobolograms showing synergy between the FGFR inhibitor and the anti-FGF2 bivalent antibody on the different days and supporting the results shown in FIG. 15A. FIG. 15B corresponds to 3 days after treatment with the BGJ398 inhibitor; FIG. 15C corresponds to 4 days after treatment with the BGJ398 inhibitor; and FIG. 15D corresponds to 5 days after treatment with the BGJ398 inhibitor. […]

[2] = target: FGFR2 on SNU-16 gastric cancer cell line with FGFR2 amplification (UniProt P21802); assay: FACS on SNU-16 cells, % cells with FITC+ [cont.]
[3] = target: FGFR2b alpha IIIb (Homo sapiens, UniProt P21802); assay: Surface Plasmon Resonance (SPR) binding; conditions: FGFR2b alpha IIIb antigen
Chain of FGFR2b alpha IIIb (P21802 22-378 isoform P21802-3): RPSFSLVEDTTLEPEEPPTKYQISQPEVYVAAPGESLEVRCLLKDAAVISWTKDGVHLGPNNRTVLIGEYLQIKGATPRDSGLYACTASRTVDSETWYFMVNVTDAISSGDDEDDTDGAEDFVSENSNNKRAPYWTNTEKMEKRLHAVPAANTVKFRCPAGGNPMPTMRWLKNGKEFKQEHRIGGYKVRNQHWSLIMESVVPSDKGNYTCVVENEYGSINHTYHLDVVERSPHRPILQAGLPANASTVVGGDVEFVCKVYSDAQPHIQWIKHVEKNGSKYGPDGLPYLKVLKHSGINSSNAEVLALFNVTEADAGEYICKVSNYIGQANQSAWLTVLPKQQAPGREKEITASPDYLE
Excerpt: FIGS. 17A-17C provide a schematic and tabular data related to assessments made to compare the avidity of biparatopic antibodies to that of their parental (bivalent monospecific) antibodies.
Surface Plasmon Resonance (SPR) as known in the art was used to determine the binding affinities of biparatopic antibodies. The SPR-based binding method involves immobilization of a ligand (antibody) on the surface of a sensor chip. The binding partner of interest or an analyte (FGFR2 ECD) flow through the flow channel. Different concentrations of an analyte flow over the ligand, and the interactions of ligand-analyte can be characterized. The SPR signal originates from changes in the refractive index of the […] at the surface of the sensor chip. The increase in mass associated with a binding event causes a proportional increase in the refractive index, which is observed as a change in response-resonance signal. In brief, for the experiments using the antibodies described herein, the SPR assay was carried out by immobilizing antibodies (used as […]) at a concentration ranging from 1-1000 nM and flow-through FGFR2b alpha IIIb antigen (used as […]). The antibody kinetic data for the interaction with FGFR2b alpha IIb antigen were fitted to the 2-state and 1-1 binding models using Biocore software. The mean and standard deviation KD values are derived from at least three independent runs.
Using SPR, the kinetics of 6 monospecific and 13 biparatopic antibodies for binding to a single antigen, FGFR2b alpha IIb, was measured so as to compare avidity of the biparatopic antibodies to their parental antibodies. Without wishing to be bound by theory, it was expected that the biparatopic antibodies would bind to the FGFR2 antigen more tightly than their parental antibodies and that the tighter binding biparatopic antibodies among the antibodies that were assessed would be more efficient in blocking FGFR2 dimerization (FIG. 17A), thereby leading to inhibition or blocking of constitutive FGFR2 signaling and/or oncogenic transformation. […]

[4] = target: FGFR2 on SNU-16 gastric cancer cell line with FGFR2 amplification (UniProt P21802); assay: FACS on SNU-16 cells, % No. of cells with FITC+
[5] = target: FGFR2b alpha IIIb antigen (UniProt P21802); assay: SPR (Biacore), antibody on chip, FGFR2b alpha IIIb antigen

B1: 2B 1.3.12 (antibody, V domains shown)
VH: EVQLVESGGGLVQPGGSLRLSCAASGFPFTSTGISWVRQAPGKGLEWVGRTHLGDGSTNYADSVKGRFTISADTSKNTAYLQMNSLRAEDTAVYYCARTYGIYDTYDMYTEYVMDYWGQGTLVTVSS
VL: DIQMTQSPSSLSASVGDRVTITCRASQDVDTSLAWYKQKPGKAPKLLIYSASFLYSGVPSRFSGSGSGTDFTLTISSLQPEDFATYYCQQSTGHPQTFGQGTKVEIK
notes: the duobody scheme implies IgG1 with K409R or F405L; also called Antibody D; GE
- synergy with BGJ398 in inhibiting FGFR2-PHGDH driven BaF3 cell growth [1]: synergizes
- EC50 (read off the curve) [2]: 0.3 µg/mL
- Kd [3]: 0.99 nM
- EC50 (read off the curve) [4]: 0.3 µg/mL
- Kd [5]: 0.99 nM
